Laboratory results taken from the supplement of paper PMC10065799, “High-throughput profiling of sequence recognition by tyrosine kinases and SH2 domains using bacterial peptide display” (eLife, 2023).
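Note: 11-residue human phosphosite peptides and single-mutation variants displayed on the E. coli surface, counted by deep sequencing, each peptide's frequency after selection divided by its frequency in the unselected input library; frequency after pTyr selection over input frequency; kinase dosed for 20-30% of maximal phosphorylation in three min.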

The sequences below were run against FGFR1 (UniProt P11362) (assay: phosphorylation enrichment, bacterial display (enrichment ratio); higher = better substrate or ligand; peptides without Tyr show the background).
FGFR1, sequence (P11362 whole entry, looked up): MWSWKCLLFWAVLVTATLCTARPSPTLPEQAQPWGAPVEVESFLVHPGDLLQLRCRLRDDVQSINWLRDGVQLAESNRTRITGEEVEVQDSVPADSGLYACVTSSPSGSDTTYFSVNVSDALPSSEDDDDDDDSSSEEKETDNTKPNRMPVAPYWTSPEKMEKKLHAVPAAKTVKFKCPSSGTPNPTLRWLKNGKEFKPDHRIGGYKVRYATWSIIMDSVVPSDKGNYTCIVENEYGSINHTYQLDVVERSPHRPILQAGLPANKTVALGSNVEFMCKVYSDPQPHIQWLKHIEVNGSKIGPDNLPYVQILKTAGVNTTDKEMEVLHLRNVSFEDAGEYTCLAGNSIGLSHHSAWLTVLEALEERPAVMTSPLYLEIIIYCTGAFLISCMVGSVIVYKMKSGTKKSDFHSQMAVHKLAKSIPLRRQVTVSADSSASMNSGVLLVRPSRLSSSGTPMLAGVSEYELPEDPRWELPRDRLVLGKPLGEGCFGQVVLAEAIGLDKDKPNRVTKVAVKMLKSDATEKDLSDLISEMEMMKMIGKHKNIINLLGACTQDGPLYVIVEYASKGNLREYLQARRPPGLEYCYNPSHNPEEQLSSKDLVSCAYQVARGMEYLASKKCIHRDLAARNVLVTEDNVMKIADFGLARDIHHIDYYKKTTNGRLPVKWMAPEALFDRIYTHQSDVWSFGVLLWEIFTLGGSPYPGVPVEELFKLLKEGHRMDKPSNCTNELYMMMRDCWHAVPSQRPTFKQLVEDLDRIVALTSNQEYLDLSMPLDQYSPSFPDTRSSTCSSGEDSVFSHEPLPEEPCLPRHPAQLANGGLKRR
For DEEDFYQGSME [ASCC1_Y36], the phosphorylation enrichment was 0.549.
HRGHLYLAIEF [TEK_Y899_Y897H_YF] showed a phosphorylation enrichment of 1.41.
EEQKRYFNAMK [SCN5A_Y1494_K1493R_YF] gave a phosphorylation enrichment of 0.49.
In the case of EEGESHVCSSD [DCX_Y125_Y125H], the phosphorylation enrichment is reported as 0.518.
Work on DFPGNYSGFDD [POLR1C_Y33_YF] yielded a phosphorylation enrichment of 0.456.
Sequence KPSLKYVTYGN [GALNTL5_Y404_G401S] has a phosphorylation enrichment of 0.4.
In the case of KYRREYILSLE [GPC3_Y299_W296R], the phosphorylation enrichment is reported as 0.427.
For IETGRYEILTE, the phosphorylation enrichment was 0.491.
KELAPYDENCF [RPS19_Y48_W52C] was tested, and the phosphorylation enrichment was 0.573.
YENGEYIVRQG [PRKG1_Y247_I249V] gave a phosphorylation enrichment of 0.495.
For AAFNRYDQERF [CDC73_Y293_YF], the phosphorylation enrichment was 0.394.
RFLRGYEQDAY [HLA-A_Y137_R138E] was tested, and the phosphorylation enrichment was 0.6.
For KPGVNYYFRVS, the phosphorylation enrichment was 0.623.
Sequence RISGVYKLPPD [ANGPTL7_Y145] has a phosphorylation enrichment of 0.623.
Sequence KHCEDYVCSYN [DSC1_Y846] has a phosphorylation enrichment of 0.627.
MAQDIYRASFF [ALK_Y1278_R1275Q_YF] gave a phosphorylation enrichment of 0.462.
Work on GHMYAYDWISI [BEST1_Y227_L224M] yielded a phosphorylation enrichment of 8.74.
For PECEWYKNGVK [TTN_Y2112], the phosphorylation enrichment was 0.821.
SNYRAYATEPH [TNNI3_Y29] was tested, and the phosphorylation enrichment was 0.422.
Work on VPDTNYTSDEE [STK33_Y439_A437T] yielded a phosphorylation enrichment of 0.606.
For KKRSVYLKVLF [CC2D2A_Y683], the phosphorylation enrichment was 0.494.
KMGNEYVTKGQ [MYH7_Y410_V406M] gave a phosphorylation enrichment of 0.375.
Work on QLCVSYPGGYT [PROS1_Y259_N258S] yielded a phosphorylation enrichment of 0.592.
For QKINKYLTVPA [SLC9A1_Y683_N682K], the phosphorylation enrichment was 0.659.
SLALFYRNVYH [RBL1_Y792_K794N] gave a phosphorylation enrichment of 0.603.
EVQKDYEHLFK [PAM16_Y77_N76D] gave a phosphorylation enrichment of 0.498.
For CNNFIYGGCRG [SPINT2_Y163], the phosphorylation enrichment was 0.455.
SRVTQYERDFE [SNX1_Y463] gave a phosphorylation enrichment of 0.501.
HQEPVCSVAFS [TBL1X_Y509_Y509C] showed a phosphorylation enrichment of 1.12.
GRPMDYQVSIT [OTOF_Y254] gave a phosphorylation enrichment of 0.473.
Sequence FQEPVYSVAFS [TBL1X_Y509_H504Y_YF] has a phosphorylation enrichment of 3.68.
Work on LNLKEYNLVGG [GNAQ_Y356] yielded a phosphorylation enrichment of 0.357.
NQDRTYFESVR [SPEN_Y632_YF] showed a phosphorylation enrichment of 0.602.

The sequences below were run against FGFR3 (UniProt P22607) in the same assay as above.
FGFR3, sequence (P22607 whole entry, looked up): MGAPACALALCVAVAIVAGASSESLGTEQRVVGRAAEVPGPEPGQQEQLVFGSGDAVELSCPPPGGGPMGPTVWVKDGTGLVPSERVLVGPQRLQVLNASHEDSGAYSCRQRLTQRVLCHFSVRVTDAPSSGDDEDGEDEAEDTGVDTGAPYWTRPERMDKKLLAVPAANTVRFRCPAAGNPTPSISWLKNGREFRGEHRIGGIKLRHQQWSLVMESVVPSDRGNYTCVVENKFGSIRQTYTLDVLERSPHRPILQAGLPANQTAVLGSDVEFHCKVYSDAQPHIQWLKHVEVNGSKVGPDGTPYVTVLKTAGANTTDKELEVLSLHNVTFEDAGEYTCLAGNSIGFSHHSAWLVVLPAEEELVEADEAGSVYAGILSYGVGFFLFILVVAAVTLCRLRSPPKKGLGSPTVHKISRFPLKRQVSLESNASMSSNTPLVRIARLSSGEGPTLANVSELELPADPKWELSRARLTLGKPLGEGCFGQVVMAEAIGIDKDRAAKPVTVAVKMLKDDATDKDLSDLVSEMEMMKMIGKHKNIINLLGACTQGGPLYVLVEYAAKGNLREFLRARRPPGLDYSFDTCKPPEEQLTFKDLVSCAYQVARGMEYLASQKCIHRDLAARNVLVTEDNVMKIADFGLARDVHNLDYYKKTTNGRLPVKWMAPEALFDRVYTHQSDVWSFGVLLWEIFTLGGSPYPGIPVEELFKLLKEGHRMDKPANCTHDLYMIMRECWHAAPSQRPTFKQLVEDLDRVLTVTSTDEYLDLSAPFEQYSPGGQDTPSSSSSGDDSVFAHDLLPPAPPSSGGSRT
For DEEDFYQGSME [ASCC1_Y36], the phosphorylation enrichment was 0.953.
HRGHLYLAIEF [TEK_Y899_Y897H_YF] showed a phosphorylation enrichment of 1.79.
EEQKRYFNAMK [SCN5A_Y1494_K1493R_YF] gave a phosphorylation enrichment of 0.46.
EEGESHVCSSD [DCX_Y125_Y125H] was tested, and the phosphorylation enrichment was 0.573.
DFPGNYSGFDD [POLR1C_Y33_YF] showed a phosphorylation enrichment of 0.637.
KPSLKYVTYGN [GALNTL5_Y404_G401S] showed a phosphorylation enrichment of 0.516.
Sequence KYRREYILSLE [GPC3_Y299_W296R] has a phosphorylation enrichment of 0.491.
IETGRYEILTE gave a phosphorylation enrichment of 0.632.
For KELAPYDENCF [RPS19_Y48_W52C], the phosphorylation enrichment was 0.902.
With YENGEYIVRQG [PRKG1_Y247_I249V] the phosphorylation enrichment was 0.729.
Sequence AAFNRYDQERF [CDC73_Y293_YF] has a phosphorylation enrichment of 0.504.
In the case of RFLRGYEQDAY [HLA-A_Y137_R138E], the phosphorylation enrichment is reported as 0.57.
With KPGVNYYFRVS the phosphorylation enrichment was 0.7.
RISGVYKLPPD [ANGPTL7_Y145] gave a phosphorylation enrichment of 0.801.
Work on KHCEDYVCSYN [DSC1_Y846] yielded a phosphorylation enrichment of 0.662.
Sequence MAQDIYRASFF [ALK_Y1278_R1275Q_YF] has a phosphorylation enrichment of 0.482.
Sequence GHMYAYDWISI [BEST1_Y227_L224M] has a phosphorylation enrichment of 6.08.
In the case of PECEWYKNGVK [TTN_Y2112], the phosphorylation enrichment is reported as 1.19.
SNYRAYATEPH [TNNI3_Y29] showed a phosphorylation enrichment of 0.447.
For VPDTNYTSDEE [STK33_Y439_A437T], the phosphorylation enrichment was 0.708.
KKRSVYLKVLF [CC2D2A_Y683] was tested, and the phosphorylation enrichment was 0.721.
Sequence KMGNEYVTKGQ [MYH7_Y410_V406M] has a phosphorylation enrichment of 0.447.
QLCVSYPGGYT [PROS1_Y259_N258S] was tested, and the phosphorylation enrichment was 0.665.
Sequence QKINKYLTVPA [SLC9A1_Y683_N682K] has a phosphorylation enrichment of 0.854.
Work on SLALFYRNVYH [RBL1_Y792_K794N] yielded a phosphorylation enrichment of 0.741.
Sequence EVQKDYEHLFK [PAM16_Y77_N76D] has a phosphorylation enrichment of 0.582.
For CNNFIYGGCRG [SPINT2_Y163], the phosphorylation enrichment was 0.382.
With SRVTQYERDFE [SNX1_Y463] the phosphorylation enrichment was 0.611.
HQEPVCSVAFS [TBL1X_Y509_Y509C] was tested, and the phosphorylation enrichment was 1.1.
For GRPMDYQVSIT [OTOF_Y254], the phosphorylation enrichment was 0.51.
FQEPVYSVAFS [TBL1X_Y509_H504Y_YF] gave a phosphorylation enrichment of 3.49.
For LNLKEYNLVGG [GNAQ_Y356], the phosphorylation enrichment was 0.698.
NQDRTYFESVR [SPEN_Y632_YF] showed a phosphorylation enrichment of 0.69.

Each sequence was assayed on c-Abl (mouse) in the same assay as above.
DEEDFYQGSME [ASCC1_Y36] showed a phosphorylation enrichment of 0.889.
HRGHLYLAIEF [TEK_Y899_Y897H_YF] gave a phosphorylation enrichment of 9.68.
For EEQKRYFNAMK [SCN5A_Y1494_K1493R_YF], the phosphorylation enrichment was 0.446.
Sequence EEGESHVCSSD [DCX_Y125_Y125H] has a phosphorylation enrichment of 0.673.
With DFPGNYSGFDD [POLR1C_Y33_YF] the phosphorylation enrichment was 0.588.
Sequence KPSLKYVTYGN [GALNTL5_Y404_G401S] has a phosphorylation enrichment of 0.408.
KYRREYILSLE [GPC3_Y299_W296R] showed a phosphorylation enrichment of 0.511.
IETGRYEILTE was tested, and the phosphorylation enrichment was 0.854.
KELAPYDENCF [RPS19_Y48_W52C] gave a phosphorylation enrichment of 0.997.
YENGEYIVRQG [PRKG1_Y247_I249V] was tested, and the phosphorylation enrichment was 0.582.
AAFNRYDQERF [CDC73_Y293_YF] gave a phosphorylation enrichment of 0.684.
RFLRGYEQDAY [HLA-A_Y137_R138E] gave a phosphorylation enrichment of 0.478.
Work on KPGVNYYFRVS yielded a phosphorylation enrichment of 0.732.
In the case of RISGVYKLPPD [ANGPTL7_Y145], the phosphorylation enrichment is reported as 0.838.
Work on KHCEDYVCSYN [DSC1_Y846] yielded a phosphorylation enrichment of 0.771.
In the case of MAQDIYRASFF [ALK_Y1278_R1275Q_YF], the phosphorylation enrichment is reported as 12.2.
GHMYAYDWISI [BEST1_Y227_L224M] showed a phosphorylation enrichment of 0.739.
For PECEWYKNGVK [TTN_Y2112], the phosphorylation enrichment was 1.31.
SNYRAYATEPH [TNNI3_Y29] showed a phosphorylation enrichment of 0.503.
Work on VPDTNYTSDEE [STK33_Y439_A437T] yielded a phosphorylation enrichment of 0.748.
Sequence KKRSVYLKVLF [CC2D2A_Y683] has a phosphorylation enrichment of 0.706.
Sequence KMGNEYVTKGQ [MYH7_Y410_V406M] has a phosphorylation enrichment of 0.326.
In the case of QLCVSYPGGYT [PROS1_Y259_N258S], the phosphorylation enrichment is reported as 0.683.
Work on QKINKYLTVPA [SLC9A1_Y683_N682K] yielded a phosphorylation enrichment of 0.462.
Sequence SLALFYRNVYH [RBL1_Y792_K794N] has a phosphorylation enrichment of 0.576.
Sequence EVQKDYEHLFK [PAM16_Y77_N76D] has a phosphorylation enrichment of 0.62.
In the case of CNNFIYGGCRG [SPINT2_Y163], the phosphorylation enrichment is reported as 0.442.
In the case of SRVTQYERDFE [SNX1_Y463], the phosphorylation enrichment is reported as 0.844.
With HQEPVCSVAFS [TBL1X_Y509_Y509C] the phosphorylation enrichment was 1.09.
In the case of GRPMDYQVSIT [OTOF_Y254], the phosphorylation enrichment is reported as 0.662.
Work on FQEPVYSVAFS [TBL1X_Y509_H504Y_YF] yielded a phosphorylation enrichment of 27.4.
LNLKEYNLVGG [GNAQ_Y356] showed a phosphorylation enrichment of 0.709.
NQDRTYFESVR [SPEN_Y632_YF] showed a phosphorylation enrichment of 0.618.

What follows are sequences tested against MERTK (UniProt Q12866) in the same assay as above.
MERTK, sequence (Q12866 whole entry, looked up): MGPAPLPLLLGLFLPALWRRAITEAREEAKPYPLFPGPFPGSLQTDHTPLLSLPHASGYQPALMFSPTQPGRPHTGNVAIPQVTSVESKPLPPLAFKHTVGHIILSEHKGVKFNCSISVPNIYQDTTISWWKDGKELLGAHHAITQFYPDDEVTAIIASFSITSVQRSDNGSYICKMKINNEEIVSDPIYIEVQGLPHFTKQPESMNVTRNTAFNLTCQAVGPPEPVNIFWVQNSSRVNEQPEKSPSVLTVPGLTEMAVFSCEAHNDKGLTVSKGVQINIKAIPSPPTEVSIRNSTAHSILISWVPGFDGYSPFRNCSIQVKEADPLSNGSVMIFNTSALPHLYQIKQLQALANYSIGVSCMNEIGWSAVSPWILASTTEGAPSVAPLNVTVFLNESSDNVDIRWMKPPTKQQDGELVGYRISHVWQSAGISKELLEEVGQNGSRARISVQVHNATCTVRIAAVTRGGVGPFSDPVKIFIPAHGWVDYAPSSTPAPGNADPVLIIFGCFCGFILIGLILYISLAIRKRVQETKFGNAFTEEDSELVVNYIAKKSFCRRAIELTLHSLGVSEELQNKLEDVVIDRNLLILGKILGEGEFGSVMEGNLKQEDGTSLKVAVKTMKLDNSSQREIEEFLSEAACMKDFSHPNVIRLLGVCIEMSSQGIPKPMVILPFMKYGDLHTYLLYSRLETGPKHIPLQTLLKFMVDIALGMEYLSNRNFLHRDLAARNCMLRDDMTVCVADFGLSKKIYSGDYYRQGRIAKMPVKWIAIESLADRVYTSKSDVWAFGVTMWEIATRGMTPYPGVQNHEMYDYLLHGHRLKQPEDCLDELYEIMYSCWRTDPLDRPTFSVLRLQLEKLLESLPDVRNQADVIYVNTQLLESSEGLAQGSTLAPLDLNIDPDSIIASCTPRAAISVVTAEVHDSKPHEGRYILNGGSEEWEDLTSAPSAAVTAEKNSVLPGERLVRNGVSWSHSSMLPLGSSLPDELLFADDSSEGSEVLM
DEEDFYQGSME [ASCC1_Y36] gave a phosphorylation enrichment of 0.524.
HRGHLYLAIEF [TEK_Y899_Y897H_YF] showed a phosphorylation enrichment of 1.64.
With EEQKRYFNAMK [SCN5A_Y1494_K1493R_YF] the phosphorylation enrichment was 0.41.
For EEGESHVCSSD [DCX_Y125_Y125H], the phosphorylation enrichment was 0.528.
DFPGNYSGFDD [POLR1C_Y33_YF] gave a phosphorylation enrichment of 0.376.
KPSLKYVTYGN [GALNTL5_Y404_G401S] was tested, and the phosphorylation enrichment was 0.348.
In the case of KYRREYILSLE [GPC3_Y299_W296R], the phosphorylation enrichment is reported as 0.576.
IETGRYEILTE gave a phosphorylation enrichment of 0.533.
KELAPYDENCF [RPS19_Y48_W52C] was tested, and the phosphorylation enrichment was 0.487.
In the case of YENGEYIVRQG [PRKG1_Y247_I249V], the phosphorylation enrichment is reported as 0.424.
In the case of AAFNRYDQERF [CDC73_Y293_YF], the phosphorylation enrichment is reported as 0.398.
RFLRGYEQDAY [HLA-A_Y137_R138E] showed a phosphorylation enrichment of 0.304.
In the case of KPGVNYYFRVS, the phosphorylation enrichment is reported as 0.392.
Sequence RISGVYKLPPD [ANGPTL7_Y145] has a phosphorylation enrichment of 0.719.
With KHCEDYVCSYN [DSC1_Y846] the phosphorylation enrichment was 0.398.
MAQDIYRASFF [ALK_Y1278_R1275Q_YF] showed a phosphorylation enrichment of 0.66.
GHMYAYDWISI [BEST1_Y227_L224M] was tested, and the phosphorylation enrichment was 7.82.
For PECEWYKNGVK [TTN_Y2112], the phosphorylation enrichment was 0.532.
Work on SNYRAYATEPH [TNNI3_Y29] yielded a phosphorylation enrichment of 0.397.
Work on VPDTNYTSDEE [STK33_Y439_A437T] yielded a phosphorylation enrichment of 0.437.
In the case of KKRSVYLKVLF [CC2D2A_Y683], the phosphorylation enrichment is reported as 0.361.
KMGNEYVTKGQ [MYH7_Y410_V406M] gave a phosphorylation enrichment of 0.374.
Sequence QLCVSYPGGYT [PROS1_Y259_N258S] has a phosphorylation enrichment of 0.402.
In the case of QKINKYLTVPA [SLC9A1_Y683_N682K], the phosphorylation enrichment is reported as 0.52.
Work on SLALFYRNVYH [RBL1_Y792_K794N] yielded a phosphorylation enrichment of 0.382.
In the case of EVQKDYEHLFK [PAM16_Y77_N76D], the phosphorylation enrichment is reported as 0.462.
CNNFIYGGCRG [SPINT2_Y163] was tested, and the phosphorylation enrichment was 0.391.
SRVTQYERDFE [SNX1_Y463] showed a phosphorylation enrichment of 0.379.
Sequence HQEPVCSVAFS [TBL1X_Y509_Y509C] has a phosphorylation enrichment of 0.791.
In the case of GRPMDYQVSIT [OTOF_Y254], the phosphorylation enrichment is reported as 0.416.
Work on FQEPVYSVAFS [TBL1X_Y509_H504Y_YF] yielded a phosphorylation enrichment of 11.7.
For LNLKEYNLVGG [GNAQ_Y356], the phosphorylation enrichment was 0.424.
Work on NQDRTYFESVR [SPEN_Y632_YF] yielded a phosphorylation enrichment of 0.469.
